{"source": "patent US20200181210A1", "about": "“MODIFIED CYCLIC PEPTIDES AND THERAPEUTIC USE THEREOF” (THE BROAD INSTITUTE, INC., priority 2017, published 2020)", "system": "trypsin", "assay": "trypsin protease digestion resistance of cyclotides (SDS-PAGE)", "procedure": "Protease conditions were tested on cyclotides and variants. Samples were subjected to 10 μg of trypsin at 37° C. for up to 24 hours. […] Four elutions were collected in 200 μL fractions. Protein content of bound/eluted material was quantified based upon detection of fluorescently labeled lysines within bound/eluted sequences.\nThe cyclotides and empty yeast vector were then subjected to 10 μg trypsin protease digestion at 37° C. for up to 24 hours.", "data": [{"substance": "pYES-MCoTI: native (natural) MCoTI cyclotide expressed in yeast from the pYES vector (cyclo(GGVCPKILQRCRRDSDCPGACICRGNGYCGSGSD); also: cyclic cystine knot, three disulfides CysI-IV, II-V, III-VI)", "values": [{"measurement": "resistance to trypsin digestion", "setting": "10 μg trypsin, 37° C., up to 24 hours, SDS-PAGE", "result": "resistant to trypsin digestion"}, {"measurement": "resistance towards trypsin", "setting": "trypsin exposure up to 18 hrs (FIG. 28)", "result": "resistance towards trypsin up to 18 hrs with no change in levels"}]}]}
